Test results reported in article PMC4072508, “Genome-Wide Prediction and Validation of Peptides That Bind Human Prosurvival Bcl-2 Proteins” (PLoS Computational Biology, 2014).

Biological target: Bcl-xL, Q07817
Test: peptide SPOT array, c-Myc-tagged receptor at 1 uM or 100 nM, anti-c-Myc-Cy3

Bcl-xL, Q07817, sequence (Q07817 1-209): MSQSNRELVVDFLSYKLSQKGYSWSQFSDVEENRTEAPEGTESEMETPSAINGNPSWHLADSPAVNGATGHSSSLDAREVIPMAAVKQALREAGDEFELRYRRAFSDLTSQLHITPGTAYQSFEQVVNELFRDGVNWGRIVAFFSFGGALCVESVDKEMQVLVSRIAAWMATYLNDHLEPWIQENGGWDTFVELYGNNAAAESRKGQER

Binder | SPOT signal as a fraction of Bim BH3's signal on the same receptor and array
GHDATEDARTILELARYFLKHGPKKI [XXXX] | 0.11
YIEYLKSSDRLDEAAQRLATVVNDER [XAB2] | 0.03
TFETQEDAQKILQEAEKLNYKDKKLN [BOLL] | 0.02
DLSSTFVSLALRKVLDWPLSARREKG [TTC31] | 0.17
YKGHREIARYLLEQGAQVNRRSAKGN [FEM1A] | 1.44
NEEGQQFALKDHRLGRTSFRNLKNKR [RIOK2] | 1.05
KPRMSNTSFVIQHFADKVEYKCEGFL [MYO5C] | 0.04
ASKLKGAAVKLADFGLAIEVEGEQQA [CAMK2A] | 0.03
LGRTGQVCLFDKRGADQHALDQEQRD [ACAP3] | 0.08
VIKQRRLPDQDSKLADRIQLSGRYYL [RAPGEF2] | 1.24
HNQLTTVPERLSNCSRSLKNLILKNN [TLR7] | 0.29
NRQLANMVNNLKEISQEAREGTQGER [TRIM21] | 0.03
NKQLRKETESDRKIALEAQKKAKVKI | 0.32
SQATGELADLIQQLSEKFGKNLNKDH [TRPC7] | 0.03
NKQLRKETESLRKILLEAQKKAKVKI | 0.31
AYTMERSARQIMHTAMKYNLGLDLRT [GLUD2] | 0.19
AHGVRDVSKELVGLAEHAATRLRFTK [TMEM151A] | 0.1
LREVRESIRFLRQVGRDWVQRRREAL [CYP46A1] | 0.8
AERHKQEADDIVRVAKTANDTSTEAY [LAMC1] | 0.02
RGRTRGWVQTDARMSRRTRGPVERAA [C6orf223] | 0.91

Binder | SPOT signal as a fraction of Bim BH3's signal on the same receptor and array
IERMIHFGRELQAMSEQLRRDCGKNT [RANBP9] | 0.06
ARELEEISERLEEASGATSAQIEMNK [MYH13] | 0.02
RLRHDEIITLLKNVGERVVLEVEYEL [GRIP2] | 0.03
AKIIGNNVKKLQKFASTVKMWVFEET [GPD1L] | 0.07
RYRHGAPAEQDRHLADMLTTKWATLQ [PLEKHH1] | 0.71
LVNIRKDTLRLVKCAEEVKSPGEEAS [RNF157] | 0.03
DTIFHRAAVRLRDLGGAILRHARRQA [BRPF3] | 0.9
SSDVIAVCQSLRQMAEKCQQDPESCW [MMS19] | 0.02
NKQLRKETESLRKIALEAQKKAKVKI | 0.5
ILRHKDIIDDLVKSGHKIMTACSEEE [DST] | 0.03
HRTSNVLTLSDKRFANFSGGKITKDV [USP36] | 1.11
LARIRRRIKWLQDGSQSLFGRLHNDC [VWA3B] | 0.56
SRELEEISERLEEAGGATSAQIEMNK [MYH2] | 0.02
PFNIQDYAEALKNYAASIYNLSKKHD [NAALAD2] | 0.05
EQKVKQKAADLLEMATFLQKRVEEEE [C10orf79] | 0.02
MGVLAAAARCLVRGLDRMSKWTSKRG [MRPL41] | 0.42
PDGLLEFAKRLERWGRGAFGHLRLFQ [LRRC41] | 0.46
DFMGRTFAKPDVKMADEAYCPPRFPP [OTOF] | 0.03
LFRIRLVCTILDTCGQYFDRGSSKRK [UPF2] | 0.24
SDDVQKIVEELQSLSKMLLKDVEEEK [IL31] | 0.03
